Results: patent US20220098261A1 (Harvard, published 2022)

How the values were obtained:
EPO receptor on cells = target: T1, EPO receptor on cells (human, UniProt P19235 25-508); assay: cell-based or functional assay
T1 sequence (looked up): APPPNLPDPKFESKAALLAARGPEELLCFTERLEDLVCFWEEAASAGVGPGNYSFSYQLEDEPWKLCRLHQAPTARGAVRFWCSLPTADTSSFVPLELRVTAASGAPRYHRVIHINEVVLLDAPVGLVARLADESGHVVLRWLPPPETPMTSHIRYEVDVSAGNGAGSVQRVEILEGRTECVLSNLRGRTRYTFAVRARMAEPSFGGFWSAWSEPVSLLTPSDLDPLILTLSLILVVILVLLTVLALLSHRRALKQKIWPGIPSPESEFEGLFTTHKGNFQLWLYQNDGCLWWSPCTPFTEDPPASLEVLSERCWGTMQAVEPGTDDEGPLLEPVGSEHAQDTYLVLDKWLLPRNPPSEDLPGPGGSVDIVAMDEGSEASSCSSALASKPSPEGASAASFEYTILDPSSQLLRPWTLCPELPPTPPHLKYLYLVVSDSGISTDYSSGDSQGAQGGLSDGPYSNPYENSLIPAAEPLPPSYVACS

human glycophorin A [1] = target: T2, human glycophorin A (human, UniProt P02724 20-150); assay: column 'Binding strength' of Table 1, format scFv; method not stated
T2 construct: Native protein on human red blood cells (and TF-1 cells); also called GYPA; huGYPA
T2 sequence: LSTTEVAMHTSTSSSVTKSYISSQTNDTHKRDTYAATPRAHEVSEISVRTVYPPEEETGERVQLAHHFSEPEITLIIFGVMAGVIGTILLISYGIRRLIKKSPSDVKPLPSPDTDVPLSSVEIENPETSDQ

human glycophorin A [2] = target: T2, human glycophorin A; assay: column 'Binding strength' of Table 1, format nanobody; method not stated

Darbepoetin (Amgen) (ligand)
TF-1 cell proliferation, EC50 relative to epoetin alpha (EPO receptor on cells): 14.7 fold

B1: 1C3 scFv (scFv)
scFv: EVRLLESGGGPVQPGGSLKLSCAASGFDFSRYWMNWVRRAPGKGLEWIGEINQQSSTINYSPPLKDKFIISRDNAKSTLYLQMNKVRSEDTALYYCARLSLTAAGFAYWGQGTLVTVSAGGGSSGGSGSSGGSSSGGDIVMSQSPSSLAVSVGEKVSMSCKSSQSLFNSRTRKNYLTWYQQKPGQSPKPLIYWASTRESGVPDRFTGSGSGTDFTLTISSVQAEDLADYYCKQSYNLRTFGGGTKLEIK
Kd (human glycophorin A [1]): 30 nM

B2: IH4v1 nanobody (VHH)
VHH: QVQLQESGGGSVQAGGSLRLSCVASGYTDSTYCVGWFRQAPGKEREGVARINTISGRPWYADSVKGRFTISQDNSKNTVYLQMNSLKPEDTAIYYCTLTTANSRGFCSGGYNYKGQGTQVTVS
notes: Camelid single-domain antibody with the added Thr118
Kd (human glycophorin A [2]): 30 nM
